According to patent US20180325119A1 (PIONEER HI BRED INTERNATIONAL, published 2018):

Assays:
Assay in all cases: co-expression in E. coli (pETDuet-1, N-6 His on the -1 fragment, -2 fragment untagged); Ni-NTA purification
[1] = molecular target: T1, IPD082Ia-2, C-terminal fragment of homolog IPD082Ia (Pseudomonas monteilii)
T1 chain: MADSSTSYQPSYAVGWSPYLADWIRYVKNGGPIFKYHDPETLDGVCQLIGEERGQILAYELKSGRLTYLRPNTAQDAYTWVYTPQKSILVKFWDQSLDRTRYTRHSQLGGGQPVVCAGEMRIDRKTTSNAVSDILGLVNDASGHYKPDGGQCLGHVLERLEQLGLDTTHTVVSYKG
From the text: (§1) The IPD082Aa gene (SEQ ID NO: 1) was amplified by PCR using genomic DNA isolated from strain SSP446D7 using forward primer […] (SEQ ID NO: 59) and reverse primer […] (SEQ ID NO: 60). The resulting PCR product was DNA sequence verified and subcloned into pET16B vector with an N-terminal His-10 tag, and into pET24a vector with C-terminal His-10 tag or without tag. The plasmid DNA, containing the IPD082Aa gene insert, was transformed into competent C41 E. coli cells for recombinant protein expression. E. coli cells were grown at 37° C. with carbenicillin or kanamycin selection to OD₆₀₀ equal to 0.7-0.8 and then 1 mM ITPG was added and further grown at 16° C. for 16 hours to induce protein expression. The E. coli expressed His-tagged proteins were purified by immobilized metal ion chromatography using Ni-NTA agarose (Qiagen, Germany) according to the manufacturer's protocols. Other IPD082 homologs were expressed in a similar manner except the gene sequences were synthesized.
(§2) The polynucleotides, SEQ ID NO: 33 and SEQ ID NO: 35 respectively, encoding the 38.2 kDa N-terminal fragment (IPD082Aa-1—SEQ ID NO: 34) and 20.5 kDa C-terminal fragment (IPD082Aa-2—SEQ ID NO: 36) of IPD082Aa, were also co-expressed (FIG. 11) in a pETDuet™-1 vector (EMD Millipore, a Life Science business of Merck KGaA, Frankfurter StraBe 250, 64293, Darmstadt, Germany). Similarly polynucleotides encoding the C-terminal fragments of the IPD082 homologs: IPD082Hb-2 (SEQ ID NO: 37); IPD082Ia-2 (SEQ ID NO: 39); IPD082Ic-2 (SEQ ID NO: 41); IPD082Ie-2 (SEQ ID NO: 43); IPD082Ib-2 (SEQ ID NO: 45); IPD082Hd-2 (SEQ ID NO: 47); and IPD082Hc-2 (SEQ ID NO: 49), were cloned as chimeric fusions with IPD082Aa-2 (SEQ ID NO: 35) in the pETDuet™-1 vector containing IPD082Aa-1 polynucleotide (SEQ ID NO: 33).

[2] = molecular target: T2, IPD082Ie-2, C-terminal fragment of homolog IPD082Ie (Pseudomonas agarici)
T2 chain: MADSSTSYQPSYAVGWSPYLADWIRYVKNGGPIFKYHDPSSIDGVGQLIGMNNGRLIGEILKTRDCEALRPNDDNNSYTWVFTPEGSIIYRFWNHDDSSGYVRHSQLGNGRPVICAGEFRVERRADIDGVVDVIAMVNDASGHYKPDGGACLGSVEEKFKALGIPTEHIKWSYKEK
From the text: as §1, §2

[3] = molecular target: T3, IPD082Hc-2, C-terminal fragment of homolog IPD082Hc (Pseudomonas corrugata)
T3 chain: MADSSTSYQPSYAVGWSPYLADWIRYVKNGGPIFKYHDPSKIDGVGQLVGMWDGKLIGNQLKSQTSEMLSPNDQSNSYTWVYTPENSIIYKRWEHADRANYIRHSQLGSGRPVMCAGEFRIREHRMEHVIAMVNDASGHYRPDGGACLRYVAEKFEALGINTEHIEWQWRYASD
From the text: as §1, §2

[4] = molecular target: T4, IPD082Ic-2, C-terminal fragment of homolog IPD082Ic (Pseudomonas sp. S16-2)
T4 chain: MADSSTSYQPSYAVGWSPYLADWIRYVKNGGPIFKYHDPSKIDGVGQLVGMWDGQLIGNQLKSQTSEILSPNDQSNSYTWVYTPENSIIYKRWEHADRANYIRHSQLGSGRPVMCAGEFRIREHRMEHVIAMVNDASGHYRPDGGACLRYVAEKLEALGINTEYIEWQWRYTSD
From the text: as §1, §2

[5] = molecular target: T5, IPD082Hd-2, C-terminal fragment of homolog IPD082Hd (Pseudomonas corrugata)
T5 chain: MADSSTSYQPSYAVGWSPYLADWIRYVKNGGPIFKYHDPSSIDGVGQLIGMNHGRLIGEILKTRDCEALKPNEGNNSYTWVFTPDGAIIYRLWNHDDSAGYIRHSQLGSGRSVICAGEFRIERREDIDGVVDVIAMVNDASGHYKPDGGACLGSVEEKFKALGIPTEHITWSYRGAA
From the text: as §1, §2

[6] = molecular target: T6, IPD082Ib-2, C-terminal fragment of homolog IPD082Ib (Pseudomonas sp VLB120)
T6 chain: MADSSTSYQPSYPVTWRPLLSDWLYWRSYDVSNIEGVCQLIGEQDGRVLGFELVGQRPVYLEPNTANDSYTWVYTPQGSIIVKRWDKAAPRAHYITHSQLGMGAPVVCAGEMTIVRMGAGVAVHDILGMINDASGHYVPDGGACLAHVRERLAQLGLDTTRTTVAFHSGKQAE
From the text: as §1, §2

Measured: binding result

B1: IPD082Aa-1, N-terminal region of IPD082Aa (pETDuet-1 construct, N-6 His) (other)
chain: MQTTVSETLVSGSDPRLQVSMGNETANGRWDNPYAIQFTYSIAGRQFFYGQNLKTHYWFIQELLPGGKMGQETANGRWDNPYAVQFAFSVGGRQFFYGQNLETNYWFIQELLAGGKMGQETANGRWNNPYASQFAFSVGGRQFFYGQNLKTNYWFIQELLAGGKMGQETANGTLDGPFAVQFPFSVGGSQYFYGQNIKDRSWFIKELLAGGKVGKTTASGRWDNAYAVQFAYPAEQYGRQYFYGQNLDTNYWFVQELLPGGAMGEEIMNGRWGNPYATQFAYEQGGISYFYGQNQSSNYWFIQELLSDTEYTVRRLPLLDYSSSTSAAQQSAPGVCL
notes: Co-expressed in pETDuet-1 with untagged C-terminal fragments of IPD082 homologs; not shown: N-terminal 6xHis tag of the pETDuet-1 vector ('N-6 His for -1')
binds: all assays above
